Paper PMC3902922 (Nucleic Acids Research, 2013)

Target: T1, Hop2-R176A–Mnd1 mutant complex (mouse, UniProt O35047 1-217; Q8K396 1-205, R176A)
T1 sequence 1: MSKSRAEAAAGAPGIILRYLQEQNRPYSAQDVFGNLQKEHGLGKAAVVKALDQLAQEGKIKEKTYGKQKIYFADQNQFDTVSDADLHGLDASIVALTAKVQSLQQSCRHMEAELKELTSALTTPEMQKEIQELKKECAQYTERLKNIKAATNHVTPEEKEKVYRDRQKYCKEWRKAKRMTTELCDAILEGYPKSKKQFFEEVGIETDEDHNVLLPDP
T1 sequence 2: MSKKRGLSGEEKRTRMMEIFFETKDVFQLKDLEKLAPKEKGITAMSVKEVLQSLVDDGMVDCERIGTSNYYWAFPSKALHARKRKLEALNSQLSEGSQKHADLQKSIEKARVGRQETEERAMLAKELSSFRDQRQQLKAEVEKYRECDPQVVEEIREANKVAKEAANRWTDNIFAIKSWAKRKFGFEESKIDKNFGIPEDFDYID
Assay: pull-down

B1: Human DMC1 (natural protein)
chain: MKEDQVVAEEPGFQDEEESLFQDIDLLQKHGINVADIKKLKSVGICTIKGIQMTTRRALCNVKGLSEAKVDKIKEAANKLIEPGFLTAFEYSEKRKMVFHITTGSQEFDKLLGGGIESMAITEAFGEFRTGKTQLSHTLCVTAQLPGAGGYPGGKIIFIDTENTFRPDRLRDIADRFNVDHDAVLDNVLYARAYTSEHQMELLDYVAAKFHEEAGIFKLLIIDSIMALFRVDFSGRGELAERQQKLAQMLSRLQKISEEYNVAVFVTNQMTADPGATMTFQADPKKPIGGHILAHASTTRISLRKGRGELRIAKIYDSPEMPENEATFAITAGGIGDAKE
B1: binds.
